Data reported in patent US20240092919A1 (Ablynx, published 2024).
Each block holds one binder with its values, some of them ahead of it.

What was measured:
human CD33 on cells [1] = target: human CD33 on cells (human, UniProt P20138 18-364); test: cell-based or functional assay
Target sequence in this assay (P20138 18-364): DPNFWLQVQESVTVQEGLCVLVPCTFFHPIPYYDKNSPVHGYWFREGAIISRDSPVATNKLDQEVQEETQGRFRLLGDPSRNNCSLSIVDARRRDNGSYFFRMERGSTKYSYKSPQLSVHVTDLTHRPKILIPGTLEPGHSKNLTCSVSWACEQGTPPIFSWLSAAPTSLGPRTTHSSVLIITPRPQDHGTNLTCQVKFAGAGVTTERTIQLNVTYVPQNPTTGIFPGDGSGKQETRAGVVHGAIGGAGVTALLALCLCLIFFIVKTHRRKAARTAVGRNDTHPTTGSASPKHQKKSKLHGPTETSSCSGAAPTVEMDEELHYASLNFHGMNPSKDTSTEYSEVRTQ

human CD123 on cells [2] = target: human CD123 on cells (human, UniProt P26951 19-378); test: cell-based or functional assay
cynomolgus serum albumin [3] = target: T1, cynomolgus serum albumin (cynomolgus monkey, UniProt A2V9Z4 25-608); test: SPR (ProteOn XPR36, 37°C), albumin immobilised
T1 construct: also called CSA
T1 sequence (A2V9Z4 25-608 limits assumed): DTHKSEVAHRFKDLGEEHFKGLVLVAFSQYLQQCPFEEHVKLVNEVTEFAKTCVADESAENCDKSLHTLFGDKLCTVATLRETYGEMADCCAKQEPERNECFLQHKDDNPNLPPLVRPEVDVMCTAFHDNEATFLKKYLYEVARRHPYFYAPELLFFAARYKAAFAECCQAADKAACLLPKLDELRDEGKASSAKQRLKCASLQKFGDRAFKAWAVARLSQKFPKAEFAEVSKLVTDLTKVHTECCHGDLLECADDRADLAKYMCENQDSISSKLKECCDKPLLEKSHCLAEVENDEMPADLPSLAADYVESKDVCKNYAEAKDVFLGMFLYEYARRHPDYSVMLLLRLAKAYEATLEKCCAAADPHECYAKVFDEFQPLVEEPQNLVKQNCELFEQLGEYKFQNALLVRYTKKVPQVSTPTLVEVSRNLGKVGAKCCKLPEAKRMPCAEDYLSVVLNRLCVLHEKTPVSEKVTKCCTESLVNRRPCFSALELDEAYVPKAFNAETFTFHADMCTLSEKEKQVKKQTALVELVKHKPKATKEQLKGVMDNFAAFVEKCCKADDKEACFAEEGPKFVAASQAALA

human CD33 on cells [4] = target: T2, human CD33 on cells (human, UniProt P20138 18-364); test: cell-based or functional assay; remark: listed apart in the source
T2 sequence (P20138 18-364): as the sequence (P20138 18-364) above

human CD123 on cells [5] = target: T3, human CD123 on cells (human, UniProt P26951 19-378); test: cell-based or functional assay; remark: listed apart in the source
cynomolgus CD33 on cells = cynomolgus CD33 on cells (cynomolgus); test: cell-based or functional assay
[6] = target: cynomolgus CD123 on cells (cynomolgus); test: cell-based or functional assay
[7] = target: T4, human TCR on primary human T cells (human, UniProt P01848 1-140; P01850 1-176); test: cell-based or functional assay
T4 TCR alpha (looked up): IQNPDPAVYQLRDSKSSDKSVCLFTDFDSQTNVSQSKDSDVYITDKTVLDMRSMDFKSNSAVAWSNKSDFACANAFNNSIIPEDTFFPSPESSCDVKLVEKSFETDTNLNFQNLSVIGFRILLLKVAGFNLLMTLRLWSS
T4 TCR beta (looked up): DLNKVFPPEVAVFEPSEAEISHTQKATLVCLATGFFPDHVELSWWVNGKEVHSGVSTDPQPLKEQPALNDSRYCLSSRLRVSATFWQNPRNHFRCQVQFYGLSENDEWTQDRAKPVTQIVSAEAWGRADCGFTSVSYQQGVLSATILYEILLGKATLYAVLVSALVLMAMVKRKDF

[8] = target: cynomolgus TCR on primary cynomolgus T cells (cynomolgus); test: cell-based or functional assay
[9] = target: T5, Cynomolgus TCR(AEA41865/AEA41866)-zipper protein (cynomolgus); test: SPR, ProteOn XPR36, 37 C; TCR-zipper coated on GLC chip
T5 construct: also called cyTCR-zipper; cyTCR(AEA41865)-zipper
T5 TCR alpha: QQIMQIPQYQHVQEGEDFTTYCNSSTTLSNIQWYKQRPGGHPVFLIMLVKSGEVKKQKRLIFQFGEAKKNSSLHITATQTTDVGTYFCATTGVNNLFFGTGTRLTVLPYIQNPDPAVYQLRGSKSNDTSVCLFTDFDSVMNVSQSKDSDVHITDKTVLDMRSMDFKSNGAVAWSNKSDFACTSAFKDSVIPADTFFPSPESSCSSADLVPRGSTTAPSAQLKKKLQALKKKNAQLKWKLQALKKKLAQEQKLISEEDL
T5 TCR beta: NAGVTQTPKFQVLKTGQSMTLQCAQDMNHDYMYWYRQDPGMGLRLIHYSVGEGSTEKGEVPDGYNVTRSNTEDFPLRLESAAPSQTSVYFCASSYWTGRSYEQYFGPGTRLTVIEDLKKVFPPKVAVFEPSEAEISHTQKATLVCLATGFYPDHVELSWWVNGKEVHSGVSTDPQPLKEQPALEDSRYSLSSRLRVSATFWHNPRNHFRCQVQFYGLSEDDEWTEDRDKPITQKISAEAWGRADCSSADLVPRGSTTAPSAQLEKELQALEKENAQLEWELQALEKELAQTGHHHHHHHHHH

huCD33L-Fc = target: T6, huCD33L-Fc (human, UniProt P20138 18-259); test: SPR, ProteOn XPR36, 37 C; CD33L-Fc captured on anti-huIgG (Fc)
T6 construct: also called Human CD33L-Fc; not shown: Fc part, not described (captured by anti-huIgG (Fc))
T6 sequence (P20138 18-259 limits assumed): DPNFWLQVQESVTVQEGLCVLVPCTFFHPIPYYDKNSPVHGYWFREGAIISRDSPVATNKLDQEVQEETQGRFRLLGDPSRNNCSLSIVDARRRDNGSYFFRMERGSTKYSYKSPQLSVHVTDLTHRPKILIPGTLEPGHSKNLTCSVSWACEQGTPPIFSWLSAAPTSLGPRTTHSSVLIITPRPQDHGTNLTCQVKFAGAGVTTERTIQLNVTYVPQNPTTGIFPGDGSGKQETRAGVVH

cyCD33L-Fc = target: T7, cyCD33L-Fc (cynomolgus); test: as above
T7 construct: also called Cynomolgus CD33L-Fc

huCD123-Fc = target: T8, huCD123-Fc (human, UniProt P26951 19-305); test: SPR, ProteOn XPR36, 37 C; CD123-Fc captured on anti-huIgG (Fc)
T8 construct: also called Human CD123-Fc; not shown: Fc part, not described (captured by anti-huIgG (Fc))
T8 sequence: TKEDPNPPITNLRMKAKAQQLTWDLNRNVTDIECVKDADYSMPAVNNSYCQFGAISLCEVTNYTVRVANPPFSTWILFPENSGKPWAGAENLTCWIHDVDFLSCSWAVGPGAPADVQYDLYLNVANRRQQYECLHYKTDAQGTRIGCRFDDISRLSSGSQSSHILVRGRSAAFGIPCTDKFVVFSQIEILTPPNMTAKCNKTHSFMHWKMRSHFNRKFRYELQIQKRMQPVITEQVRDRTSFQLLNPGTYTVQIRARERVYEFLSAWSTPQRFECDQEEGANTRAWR

cyCD123-Fc = target: T9, cyCD123-Fc (cynomolgus); test: as above
T9 construct: also called Cynomolgus CD123-Fc

mouse serum albumin = target: T10, mouse serum albumin (mouse, UniProt P07724 25-608); test: SPR, ProteOn XPR36, 37 C; albumin immobilised by amine coupling
T10 construct: also called MSA
T10 sequence (P07724 25-608 limits assumed): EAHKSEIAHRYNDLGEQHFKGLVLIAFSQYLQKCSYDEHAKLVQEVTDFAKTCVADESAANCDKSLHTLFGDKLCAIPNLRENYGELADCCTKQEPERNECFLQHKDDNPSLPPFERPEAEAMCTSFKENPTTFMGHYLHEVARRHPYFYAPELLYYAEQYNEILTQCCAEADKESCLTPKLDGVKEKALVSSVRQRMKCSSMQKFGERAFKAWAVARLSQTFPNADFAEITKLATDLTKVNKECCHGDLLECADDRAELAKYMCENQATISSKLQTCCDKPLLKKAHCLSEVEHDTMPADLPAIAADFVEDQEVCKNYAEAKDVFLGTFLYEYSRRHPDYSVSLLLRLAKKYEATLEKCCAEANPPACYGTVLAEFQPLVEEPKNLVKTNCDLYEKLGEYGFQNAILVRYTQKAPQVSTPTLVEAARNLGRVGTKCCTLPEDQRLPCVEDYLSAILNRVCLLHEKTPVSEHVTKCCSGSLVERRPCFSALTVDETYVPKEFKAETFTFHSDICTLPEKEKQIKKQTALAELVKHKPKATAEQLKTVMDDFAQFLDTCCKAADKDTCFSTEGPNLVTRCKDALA

cynomolgus serum albumin [10] = target: T11, cynomolgus serum albumin (cynomolgus); test: as above
T11 construct: also called CSA
T11 sequence (A2V9Z4 25-608): as the sequence (A2V9Z4 25-608 limits assumed) above

human serum albumin = target: T12, human serum albumin (human, UniProt P02768 25-609); test: as above
T12 construct: also called HSA

[11] = target: T4, human TCR on primary human T cells; test: flow cytometry competition on primary human T cells; competitor FLAG3His6 tagged monovalent TCR ISVD; global (weighted) IC50, n = 4
[12] = target: T13, cynomolgus TCR on primary cynomolgus T cells (cynomolgus); test: flow cytometry competition on primary cynomolgus T cells; competitor FLAG3His6 tagged monovalent TCR ISVD; global (weighted) IC50, n = 7
T13 construct: whole, on cells; also called cyno TCRαβ

human CD123 on cells [13] = target: T3, human CD123 on cells; test: flow cytometry on CHO Flp-In huCD123 cells; by paragraph 678 with 30 uM HSA, anti-VHH mAb ABH0077 + APC goat anti-mouse; MFI (mean APC) [panel CHO Flp-In huCD123 cells]
human CD33 on cells [14] = target: T2, human CD33 on cells; test: flow cytometry on CHO Flp-In huCD33-long cells; by paragraph 678 with 30 uM HSA, anti-VHH mAb ABH0077 + APC goat anti-mouse; MFI (mean APC) [panel CHO Flp-In huCD33-long cells]
[15] = target: T14, Human T cell receptor on human primary T cells (human, UniProt P01848 1-140; P01850 1-176); test: cell-based or functional assay
T14 TCR alpha (looked up): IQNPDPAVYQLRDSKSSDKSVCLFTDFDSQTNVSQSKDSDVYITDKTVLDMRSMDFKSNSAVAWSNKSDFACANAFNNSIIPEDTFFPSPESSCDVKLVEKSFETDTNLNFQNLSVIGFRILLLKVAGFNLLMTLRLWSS
T14 TCR beta (looked up): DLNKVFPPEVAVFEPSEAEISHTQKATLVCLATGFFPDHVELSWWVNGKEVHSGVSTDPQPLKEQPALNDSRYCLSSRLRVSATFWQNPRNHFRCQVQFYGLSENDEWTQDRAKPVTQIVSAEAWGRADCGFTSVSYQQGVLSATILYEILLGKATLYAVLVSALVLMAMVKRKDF

[16] = target: Cynomolgus T cell receptor on cynomolgus primary T cells (cynomolgus monkey); test: cell-based or functional assay
[17] = target: T15, Cynomolgus TCR(AEA41865/AEA41866)-zipper protein (cynomolgus monkey); test: SPR, ProteOn XPR36, 25 C, immobilised cyTCR-zipper
T15 construct: also called cyTCR-zipper protein; cynoTCR zipper
T15 TCR alpha: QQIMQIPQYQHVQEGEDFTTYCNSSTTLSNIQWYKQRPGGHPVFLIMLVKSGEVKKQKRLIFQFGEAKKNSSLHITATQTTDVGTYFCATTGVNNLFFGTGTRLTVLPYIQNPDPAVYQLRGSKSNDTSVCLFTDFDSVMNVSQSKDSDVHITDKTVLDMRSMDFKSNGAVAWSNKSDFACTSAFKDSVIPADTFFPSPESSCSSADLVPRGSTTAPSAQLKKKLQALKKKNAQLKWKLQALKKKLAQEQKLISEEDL
T15 TCR beta: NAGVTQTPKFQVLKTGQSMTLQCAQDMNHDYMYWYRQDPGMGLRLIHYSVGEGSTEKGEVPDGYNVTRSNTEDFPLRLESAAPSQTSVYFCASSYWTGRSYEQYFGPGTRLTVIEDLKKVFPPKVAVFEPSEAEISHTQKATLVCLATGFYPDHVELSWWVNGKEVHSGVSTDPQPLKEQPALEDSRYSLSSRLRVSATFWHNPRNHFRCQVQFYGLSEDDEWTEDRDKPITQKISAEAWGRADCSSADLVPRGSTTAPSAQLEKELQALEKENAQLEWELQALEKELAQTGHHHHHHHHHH

binding result (cynomolgus serum albumin [3]): binds
B1: TCRαβ-CD33-CD123 multispecific ISVD construct (other)
chain: DVQLVESGGGVVQPGGSLRLSCVASGYVHKINFYGWYRQAPGKEREKVAHISIGDQTDYADSAKGRFTISRDESKNTVYLQMNSLRPEDTAAYYCRALSRIWPYDYWGQGTLVTVSSGGGGSGGGSEVQLVESGGGVVQPGGSLRLSCAASGGVFRLNSMGWFRQAPGKQRELVAIITSDGDTNYADSVKGRFTISRDQAKNTVYLQMNSLRPEDTALYYCQITYSTSSYSFPINTWGQGTLVTVSSGGGGSGGGSEVQLVESGGGVVQPGGSLRLSCAASGVIFSGNVMGWYRRQAPGKEREWVAAIAEGGSILYRDSVKGRFTISRDNAKNTVYLQMNSLRPEDTALYYCNSHPPVLPYWGQGTLVTVSSGGGGSGGGGSGGGGSGGGGSEVQLVESGGGVVQPGGSLRLSCAASGFTFRSFGMSWVRQAPGKGPEWVSSISGSGSDTLYADSVKGRFTISRDNSKNTLYLQMNSLRPEDTALYYCTIGGSLSRSSQGTLVTVSSA
notes: also called A025001562; CD123-CD33-TCR multispecific ISVD construct
Global IC50, impedance-based (xCELLigence) human T cell mediated killing of CHO hu CD33 cells (human CD33 on cells [1]): 0.054 nM
Global IC50, impedance-based (xCELLigence) human T cell mediated killing of CHO hu CD123 cells (human CD123 on cells [2]): 0.025 nM

Kd [9]: 6.7 nM
Kd (huCD33L-Fc): 7.6 nM
Kd (cyCD33L-Fc): 6.9 nM
Kd (huCD123-Fc): 0.59 nM
Kd (cyCD123-Fc): 2 nM
Kd (mouse serum albumin): < 500 nM
Kd (cynomolgus serum albumin [10]): 7.9 nM
Kd (human serum albumin): 9.7 nM
IC50 [11]: 218 nM
IC50 [12]: 729 nM
EC50 (read off the curve) (human CD123 on cells [13]): ~10 nM
EC50 (read off the curve) (human CD33 on cells [14]): ~70 nM
B2: TCRαβ-CD33-CD123 multispecific ISVD construct (SEQ ID NO: 460) (other)
chain: DVQLVESGGGVVQPGGSLRLSCVASGYVHKINFYGWYRQAPGKEREKVAHISIGDQTDYADSAKGRFTISRDESKNTVYLQMNSLRPEDTAAYYCRALSRIWPYDYWGQGTLVTVSSGGGGSGGGSEVQLVESGGGVVQPGGSLRLSCAASGGVFRLNSMGWFRQAPGKQRELVAIITSDGDTNYADSVKGRFTISRDQAKNTVYLQMNSLRPEDTALYYCQITYSTSSYSFPINTWGQGTLVTVSSGGGGSGGGSEVQLVESGGGVVQPGGSLRLSCAASGVIFSGNVMGWYRRQAPGKEREWVAAIAEGGSILYRDSVKGRFTISRDNAKNTVYLQMNSLRPEDTALYYCNSHPPVLPYWGQGTLVTVSSGGGGSGGGGSGGGGSGGGGSEVQLVESGGGVVQPGGSLRLSCAASGFTFRSFGMSWVRQAPGKGPEWVSSISGSGSDTLYADSVKGRFTISRDNSKNTLYLQMNSLRPEDTALYYCTIGGSLSRSSQGTLVTVSSA
notes: also called A025001562; TCR-CD33-CD123
Global IC50 (M), impedance based human T cell mediated CHO hu CD33 cell killing, E:T 15:1, 50 uM HSA (n = 4) (human CD33 on cells [4]): 1.1e-10 M
Global IC50 (M), impedance based human T cell mediated CHO hu CD123 cell killing, E:T 15:1, 50 uM HSA (n = 7) (human CD123 on cells [5]): 4.4e-11 M
IC50 (M), impedance based cynomolgus T cell mediated CHO Flp-In cynoCD33 cell killing, E:T 15:1, 50 uM HSA (cynomolgus CD33 on cells): 6.2e-12 M
IC50 (M), impedance based cynomolgus T cell mediated CHO Flp-In cynoCD123 cell killing, E:T 15:1, 50 uM HSA [6]: 1.4e-12 M
Global EC50 (M), flow cytometry human T cell mediated MOLM-13 cell killing, E:T 10:1, 50 uM HSA (n = 13) [7]: 1.8e-11 M
EC50 (M), cynomolgus T cell mediated MOLM-13 cell killing, E:T 10:1 [8]: 1.36e-11 M

B3: T017000637 (bispecific antibody)
chain: DVQLVESGGGLVQAGGSLRLSCAASGITSKINDMGWYRQTPGNYREWVASITATGTTNYRDSVKGRFTISRDNAKSTVYLQMNSLKPEDTTVYYCNTFPPISNFWGQGTLVTVSSGGGGSGGGGSGGGGSGGGGSGGGGSGGGGSGGGGSEVQLVESGGGVVQPGGSLRLSCVASWDVHQINFYGWYRQAPGKEREKVAHISIGDQTDYADSAKGRFTISRDESKNTVYLQMNSLRPEDTALYYCRALSRIWPYDYWGQGTLVTVSSA
notes: also called A0110056A10(E1D)-35GS-T0170056G05(L11V, G26W, K30Q, L34Y, M77T, K83R, V89L, F91Y, M95L, Y99W)-A
% Lysis, T cell mediated MOLM-13 cell killing, human primary T cells, E:T 10:1 [15]: 0%
% Lysis, T cell mediated MOLM-13 cell killing, cynomolgus primary T cells, E:T 10:1 [16]: 17%
binding result [17]: no binding (tested: injected between 4.1 nM and 1000 nM)
